Results from the DeepSol protein solubility set.

assay: soluble on expression in E. coli; label from the status in PepcDB or PDB records

Sequence	soluble on expression in E. coli
MPFDFETVLNRRHTNAVKWDVADDELPMWVADMDFETAPVIKQALIKRAQFGVFGYEEVPMAYYEAVADWWATEHNFRPQIEWLMFCTGVVPAISSIVRKMTAAGDNVLVQAPVYNIFYHSIENNGRHTLSSDLVARDASYAIDWDDLTKKLADPLTTMMILCNPQNPIGVVWSRATLQRLGELCLKYHVLVVADEIHCDLTLNGNAYTPFSSLTAPVAHNSISCISPSKTFNVAALHAATLIIPDAHVRALVSRGINNDELAEPNSFAIPASIAAYTEGHDWVAALRTKLAANQRQVQTYLTAELPQVKLVEAQATYLLWLDVSQVTTDSAALAAFIRQRTGLFLSAGDVYRGDGNRFLRLNVACPTTTLTDGLARLKAGITAYQQVQA	not soluble
MGSDKIHHHHHHMVVNLEGKISKIGQNMKSSIIREILKFAADKDAISFGGGVPDPETFPRKELAEIAKEIIEKEYHYTLQYSTTEGDPVLKQQILKLLERMYGITGLDEDNLIFTVGSQQALDLIGKLFLDDESYCVLDDPAYLGAINAFRQYLANFVVVPLEDDGMDLNVLERKLSEFDKNGKIKQVKFIYVVSNFHNPAGVTTSLEKRKALVEIAEKYDLFIVEDDPYGALRYEGETVDPIFKIGGPERVVLLNTFSKVLAPGLRIGMVAGSKEFIRKIVQAKQSADLCSPAITHRLAARYLERYDLLEQLKPTIELYRRKRTVMLNALEEYFSDIPGVKWVKSEGGLFIWLTLPEGFDTWEMFEYAKRKKVFYVPGRVFKVYDEPSPSMRLSFCLPPDEKIVEGIKRLREVVLEYGKEKHLL	soluble
MAGDPMGSKNESTASKASGTASEKKKIEYLDKTYEVTVPTDKIAITGSVESMEDAKLLDVHPQGAISFSGKFPDMFKDITDKAEPTGEKMEPNIEKILEMKPDVILASTKFPEKTLQKISTAGTTIPVSHISSNWKENMMLLAQLTGKEKKAKKIIADYEQDLKEIKTKINDKAKDSKALVIRIRQGNIYIYPEQVYFNSTLYGDLGLKAPNEVKAAKAQELSSLEKLSEMNPDHIFVQFSDDENADKPDALKDLEKNPIWKSLKAVKEDHVYVNSVDPLAQGGTAWSKVRFLKAAAEKLTQNLEHHHHHH	soluble
LERRWRRRREAGAGAEAAAGSARPLGRQAAAARGSSPEAGAAAMAESIIIRVQSPDGVKRITATKRETAATFLKKVAKEFGFQNNGFSVYINRNKTGEITASSNKSLNLLKIKHGDLLFLFPSSLAGPSSEMETSVPPGFKVFGAPNVVEDEIDQYLSKQDGKIYRSRDPQLCRHGPLGKCVHCVPLEPFDEDYLNHLEPPVKHMSFHAYIRKLTGGADKGKFVALENISCKIKSGCEGHLPWPNGICTKCQPSAITLNRQKYRHVDNIMFENHTVADRFLDFWRKTGNQHFGYLYGRYTEHKDIPLGIRAEVAAIYEPPQIGTQNSLELLEDPKAEVVDEIAAKLGLRKVGWIFTDLVSEDTRKGTVRYSRNKDTYFLSSEECITAGDFQNKHPNMCRLSPDGHFGSKFVTAVATGGPDNQVHFEGYQVSNQCMALVRDECLLPCKDAPELGYAKESSSEQYVPDVFYKDVDKFGNEITQLARPLPVEYLIIDITTTFPKDPVYTFSISQNPFPIENRDVLGETQDFHSLATYLSQNTSSVFLDTISDFHLLLFLVTNEVMPLQDSISLLLEAVRTRNEELAQTWKRSEQWATIEQLCSEYPHPLPRHPVAGAGEQPTLHSSPLPVVPWIPHPAASWQVPSAMQRVETRPPCQARGRLR	soluble
MSLKALNKETAPKVQRPERIIQFGEGNFLRAFVDWIIYNMNQKTDFNSSVVVVQPIDKGMVDMLNAQDDLYHVNLQGLDKGEVVNSLTMIDVISRALNPYTQNDEFMKLAEQPEMRFVISNTTEAGIAFDPTCKLEDAPASSYPGKLTQLLYHRFKTFNGDKTKGLIIFPCELIFLNGHKLKETIYQYIDLWNLGNEFKTWFEEACGVYATLVDRIVPGFPRKDIAAIKEKIQYDDNLVVQAEIFHLWVIEAPQEVAKEFPADKAGLNVLFVPSEAPYHERKVTLLNGPHTVLSPVAYLSGVNIVRDACQHEVIGKYIHKVMFDELMETLNLPKEELKKFAEDVLERFNNPFVDHAVTSIMLNSFPKYETRDLPGLKTYLERKGELPKGLVLGLAAIITYYKGGVRADGAEIVPNDAPEIMNLLKELWATGCTKKVTEGVLAAEFIWGEDLNKIPGLAAAVKADLDSIQEKGMLETVKGILEGHHHHHH	soluble
MGSDKIHHHHHHMIKVAVVGTVGIPACYGGFESLVENLTSYTSNKIEYDVFCSSKSYTNKRSHYNGAQLSYIPLNANGVQSIFYDIISLIFCIFKKPDVTLVLGVSGCLFLPVYRLLSKSKIVTNIDGLEWKRDKWSKWAKKFLKFSEYMAVKFSDVVITDNKAIGDYVNAEYSKDNVVIAYGGDHAIIEGKHVGPEQDYYLSLCRIEPENNVQMILNAFSKSQHKLKFVGNWNSSEFGRKLKREFSDQPNIDIVDPIYDVNQLFKLRSECKGYVHGHSAGGTNPSLVEAMHFEKTIFAFDCNFNRYTTEDKAVYFSSSKELNDKLTEVTKDELAVISTDMKQIADRRYTWKVINHMYEETYL	not soluble
MRQRYLALLSLFASLPAMAISFQTRLESIEWKVEGDQFECRLTQPITDFGAGEFVRRAGEQATFRLKASYNMLGNGSATLLAAAAPWQPGRGDINLGSVRVSNGDIPFNTSQAQAGRLISGLMDGRSPLIRHYNRDGGQMEVRLLPVKFSKAFSDYQACTAKLLPMNFDQVKQAEVGFPGGGIELDANAKARLDNMVAYLKADPTVNRIELDGHSDNSGNRLTNRDLSRRRALAVMDYFKAQGIPEQQITLRFHGERYPLAPNTNNANRARNRRVNVHLERVAPDERPVPVASSASAAHTS	not soluble
SDVVEVVGSWWAQEREDIIMKYEKGHRAGLPEDKGPKPFGSYNNNIDHFGMQHETELPPLTAREVKQIRREISRKSKWVKMLGEWDTYKNSRKLIDRAYQGIPMNIRGPMWSVLLNIEEIKLKNPGRYQIMKEKGKRSSEHIQQMDLDVSGTLRRHIFFRDRYGTKQRELLYILLAYEEYNPEVGYCRDLSHIAALFLLYLPEEDAFWALVQLLASERHSLQGFHSPNGGTVQGLQDQQEHVVATSLPKTMWHQDKKDLCGQCSSLGCLIRILIDGISLGLTLRLWDVYLVEGEQAFMLITKSPLRFSRSASRRRPGVARGHVFGTGSLMPGPGMMTLCSSILGPL	soluble
WNRRTEQLTDGLGAQIDPDSMTPASPADIDTLTAWRQGKIIFKDQPLASVVKEMNRYLPQPITITDHRLDQVRIAGVFNTGDSAAFLQALHKSIPVQVILHADGSTELSLPR	not soluble
MAFSIPPLPWGYDGLAAKGISKEQVTFHYDKHHMGYVTKLNAAANSNPALAAKSVEEIIRTEKGPIFNLAAQIFNHNFYWESMSPNGGGEPSGKLAEAIRASFGSFAKFKEEFTNAAVGHFGSGWAWLVQDTTTKKLKVFQTHDAGCPLTEADLKPILTCDVWEHAYYIDYKNDRPAYVQTFWNVVNWDHAENQFTR	soluble
MVRELKRFGARFTFLFSARRMCPLMTAEGSLPSVEDFWGNCRIARAKGVCSYYEELSRLDEAEVAQYVRSRPVISAYRLAWDIAKFKGACPFFALKGLVEDSQFIVATYPYLFKEDIFRSFLEPYDYGDFVAVVDEAHSLLNIHSLHEYRVSQRDLDLALKEVREYASSARDFIAWLESVLKKASRLKVSRITLLDKQPFLEGLDDLSVVEDVVETIRARKAEEALSLSGPSGIGRVKTMASRIYSWLSVLVRDDSYLFAEKDEGGVLWLIATPLDPSRVVKEPLEKVKAAVLLSGTMPSTKLYMEVLGVSRSFKFVDVNLMYGARGFGRFFTIVAADVTTAYRSRGDSMYRLIASRIAMADRLLPGLKLAVYPSYEVMYRVVERLPADVETIVETRGISLDEVEAKILARDPGEKIIINAVAGGKLVEGVEFVDYEGRNLLSTVIVVGVPFPQPDDYTRKHLEVMASRIGVSNARKLVYLVNPMIKVRQALGRGIRGPEDRALYILMDYRYLRRDLKEVLGMPYHRVVKGAEDFEEAVKAARSRVFGG	soluble
MINMKPQYYLGMMSGTSLDGVDIVLVDFSQDPQLILSDFFPMPEDLREKLTTLIQVGETTLQNLGELDHKLALLYSDCVNAFLQKNTFLPNQIQAIGCHGQTVWHSPNSQFPFTMQLGDMNLLAAKTGISVIGDFRRKDMAWGGQGAPLVPAFHEAVFSNSNFATAVLNIGGISNVSILFPNQAVIGFDTGPGNTLLDQWIEKHQGLRYDENGEWAAKGNVNKVLLDELLNEPFFSLPAPKSTGRELFNLVWLNHKIAKIREKLTALSVEMSFRPEDVQATLVELTVTSIVNALNQLQTDLPKRLLVCGGGAKNSLIMRGLHDNLLDWQVSTTTEQGFDIDYVEAAAFAWLAYCRINNLPANLPSVTGAKSAVSLGAIFPKD	not soluble
MSLNLEKINELTAQDMAGVNAAILEQLNSDVQLINQLGYYIVSGGGKRIRPMIAVLAARAVGYEGNAHVTIAALIEFIHTATLLHDDVVDESDMRRGKATANAAFGNAASVLVGDFIYTRAFQMMTSLGSLKVLEVMSEAVNVIAEGEVLQLMNVNDPDITEENYMRVIYSKTARLFEAAAQCSGILAGCTPEEEKGLQDYGRYLGTAFQLIDDLLDYNADGEQLGKNVGDDLNEGKPTLPLLHAMHHGTPEQAQMIRTAIEQGNGRHLLEPVLEAMNACGSLEWTRQRAEEEADKAIAALQVLPDTPWREALIGLAHIAVQRDREGHHHHHH	soluble
MRRRRRRDGFYLAPDFRHREAEDMAGVFDIDLDQPEDAGSEDELEEGGQLNESMDHGGVGPYELGMEHCEKFEISETSVNRGPEKIRPECFELLRVLGKGGYGKVFQVRKVTGANTGKIFAMKVLKKAMIVRNAKDTAHTKAERNILEEVKHPFIVDLIYAFQTGGKPYLILEYLSG	soluble
SLPNASRVVIVAGEESGDHHAAELVKQLKAVYPDLEISGIGGKHLRAAGVHLISDLTRYAVTGLTEIIPFLKIFRKAFQDIKQHLSTQKPDLLILVDYPAFNLRLAKYAKKKLGLKIIYYISPQIWAWKGKRIHLIKDCIDKMAVIFPFEKTIYENAGVPVSFVGHPLVKKIAAAKDKHSSRTSLGLPLNEPIIALLPGSRHSEIERHIPILVNTAKLLTLDSPKLRFVVPIAGTINPDKVKAYFSNQNLTVTFIQGQAIECMSAADFVIVASGTASLECALLEKPMCIIYKSSFLTYVAAMYFIKVKFLGLCNLLANKMMVPEFLQYDCNAIELSRYISNFHNNPNQPESMINQLAKLKESLSSSQADCSLFDLVVAELPEKNA	not soluble
AQCEATIESNDAMQYDLKEMVVDKSCKQFTVHLKHVGKMAKSAMGHNWVLTKEADKEGVATDGMNAGLAQDYVKAGDTRVIAHTKVIGGGESDSVTFDVSKLTPGEAYAYFCSFPGHWAMHKGTLKLSN	soluble
MAHHHHHHMGLVSSKHAGGGDGKPLSLDVISSRPKLEPHEVSLLQLTPHGVYATLAAHVYCAAAPETAMQVPLPDGWEVLLQCSSLHLDKEGYFAVAYVHRGSRHCIISERGTSEVLGLRAGIWMYFEQPTIQFFLAEQFSKAVRHKLKVMDKVCSGSWFVSYTGHSLGAVIAGCRAVMEGTLAVTFESPGARVFIEKTLDASSGTDEHLITYLRAPNPINTLKPQCGYVIMIPTQQVVLPSGTLFLAPSNPAAAEDDDEDERQSPRSGSGNRASRKPSKVPLSSTSSTNPSGCAGLVAASVTTAASTGTTAAATLAARSPTPPSVPASNSNNSGPGAAVASAPARWRIPSFRPQEYLRGYLFGGVGMGVPELQQYVGKVEPMIREMLEHTQQVHSIHSLRSHFQKSDEPGDEEVVLRWPSHLLQFMEFYNTTRALEDPENQDAGVKEAYLGLMRRLYYTEPRRRDCIPTKYLDPRSLLLVRMWWSMDAAQRKQWPLSLMDHKALNVIQIKDRYLCSYVMTAMQAKQYLMRLVARPEMRAMIDQWRRERNDGSTGAGSPQRSKL	not soluble
